How the values were obtained:
[1] = molecular target: platelet-derived growth factor-BB (PDGF-BB) (human) (UniProt P01127); assay: equilibrium binding
[2] = molecular target: platelet-derived growth factor-BB (PDGF-BB) (human) (UniProt P01127); assay: surface plasmon resonance
[3] = molecular target: transforming growth factor-β1 (TGF-β1) (human) (UniProt P01137); assay: equilibrium or kinetic binding, not said which
[4] = molecular target: platelet-derived growth factor-BB (PDGF-BB) (human) (UniProt P01127); assay: surface plasmon resonance, kinetic
Target sequence in this assay (P01127 82-190 limits assumed): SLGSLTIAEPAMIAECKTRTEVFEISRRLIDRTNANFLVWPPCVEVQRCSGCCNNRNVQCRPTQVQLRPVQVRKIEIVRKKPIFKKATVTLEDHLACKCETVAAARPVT

[5] = molecular target: transforming growth factor-β1 (TGF-β1) (human) (UniProt P01137); assay: equilibrium binding; equilibrium binding
Target sequence in this assay (P01137 279-390 limits assumed): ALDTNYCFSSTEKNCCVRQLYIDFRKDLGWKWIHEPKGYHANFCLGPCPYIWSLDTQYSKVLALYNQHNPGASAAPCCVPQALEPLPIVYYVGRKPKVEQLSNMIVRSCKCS

[6] = molecular target: platelet-derived growth factor-BB (PDGF-BB) (human) (UniProt P01127); assay: plasmon resonance modulation; plasmon resonance
Target sequence in this assay (P01127 82-190 limits assumed): as the sequence (P01127 82-190 limits assumed) above

[7] = molecular target: transforming growth factor-β1 (TGF-β1) (human) (UniProt P01137); assay: plasmon resonance modulation; plasmon resonance
Target sequence in this assay (P01137 279-390 limits assumed): as the sequence (P01137 279-390 limits assumed) above

[8] = molecular target: vascular endothelial growth factor A (VEGF-A) (human) (UniProt P15692); assay: plasmon resonance modulation; plasmon resonance
[9] = molecular target: transforming growth factor-β1 (TGF-β1) (human) (UniProt P01137); assay: surface plasmon resonance, kinetic; kinetic, plasmon surface resonance
Target sequence in this assay (P01137 279-390 limits assumed): as above

[10] = molecular target: platelet-derived growth factor-BB (PDGF-BB) (human) (UniProt P01127); assay: method not restated in the sentence
Target sequence in this assay (P01127 82-190 limits assumed): as the sequence (P01127 82-190 limits assumed) above

[11] = molecular target: transforming growth factor-β1 (TGF-β1) (human) (UniProt P01137); assay: method not restated in the sentence
Target sequence in this assay (P01137 279-390 limits assumed): as the sequence (P01137 279-390 limits assumed) above

[12] = molecular target: vascular endothelial growth factor A (VEGF-A) (human) (UniProt P15692); assay: method not restated in the sentence
[13] = molecular target: platelet-derived growth factor-BB (PDGF-BB) (human) (UniProt P01127); assay: method not restated in the sentence (paragraph: plasmon resonance modulation)
Target sequence in this assay (P01127 82-190 limits assumed): as the sequence (P01127 82-190 limits assumed) above

[14] = molecular target: transforming growth factor-β1 (TGF-β1) (human) (UniProt P01137); assay: as above
Target sequence in this assay (P01137 279-390 limits assumed): as the sequence (P01137 279-390 limits assumed) above

[15] = molecular target: platelet-derived growth factor-BB (PDGF-BB) (human) (UniProt P01127); assay: equilibrium binding to FN adsorbed to a surface or coupled to agarose beads
[16] = molecular target: transforming growth factor-β1 (TGF-β1) (human) (UniProt P01137); assay: as above
[17] = molecular target: platelet-derived growth factor-BB (PDGF-BB) (human) (UniProt P01127); assay: radiolabeled GF binding to intact FN, non linear regression; radiolabeled GF, intact FN
[18] = molecular target: transforming growth factor-β1 (TGF-β1) (human) (UniProt P01137); assay: as above

IIICS, variably-spliced domain of fibronectin, sequence (P02751 other isoform, or with tags, fused parts or gaps limits assumed): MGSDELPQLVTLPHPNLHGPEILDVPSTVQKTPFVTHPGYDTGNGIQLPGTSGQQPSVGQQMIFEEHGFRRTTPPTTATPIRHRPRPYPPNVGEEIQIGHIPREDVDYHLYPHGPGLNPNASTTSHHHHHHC
FNIII12-14, sequence (P02751 other isoform, or with tags, fused parts or gaps limits assumed): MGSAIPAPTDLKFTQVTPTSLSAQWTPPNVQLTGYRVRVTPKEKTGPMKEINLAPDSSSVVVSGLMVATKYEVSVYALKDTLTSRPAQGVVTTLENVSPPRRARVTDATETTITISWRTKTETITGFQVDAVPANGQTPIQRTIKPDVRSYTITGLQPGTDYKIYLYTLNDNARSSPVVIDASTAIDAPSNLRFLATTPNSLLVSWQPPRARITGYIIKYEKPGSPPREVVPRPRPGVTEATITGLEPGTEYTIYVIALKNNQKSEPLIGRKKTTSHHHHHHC
FNIII1-7, sequence (P02751 other isoform, or with tags, fused parts or gaps limits assumed): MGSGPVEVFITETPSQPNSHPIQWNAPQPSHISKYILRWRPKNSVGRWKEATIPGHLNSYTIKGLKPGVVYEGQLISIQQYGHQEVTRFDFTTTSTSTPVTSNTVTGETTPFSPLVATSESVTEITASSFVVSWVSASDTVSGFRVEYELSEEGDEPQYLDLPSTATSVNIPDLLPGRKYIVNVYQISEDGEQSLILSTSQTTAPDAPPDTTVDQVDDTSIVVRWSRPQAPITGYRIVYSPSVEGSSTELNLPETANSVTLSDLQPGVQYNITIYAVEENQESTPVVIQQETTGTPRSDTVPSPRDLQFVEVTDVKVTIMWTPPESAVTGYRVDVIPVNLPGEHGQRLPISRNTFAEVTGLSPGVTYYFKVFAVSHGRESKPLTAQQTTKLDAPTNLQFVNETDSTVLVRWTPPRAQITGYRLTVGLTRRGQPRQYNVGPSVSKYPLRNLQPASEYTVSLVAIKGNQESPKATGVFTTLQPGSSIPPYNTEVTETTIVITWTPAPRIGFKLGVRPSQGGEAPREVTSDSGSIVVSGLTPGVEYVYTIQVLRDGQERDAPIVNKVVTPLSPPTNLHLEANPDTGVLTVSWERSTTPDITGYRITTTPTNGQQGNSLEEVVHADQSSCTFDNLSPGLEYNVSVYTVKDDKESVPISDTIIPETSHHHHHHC
FNIII12-V15 (HV), composite heparinII-binding and variably-spliced IIICS domains of fibronectin, sequence (P02751 other isoform, or with tags, fused parts or gaps limits assumed): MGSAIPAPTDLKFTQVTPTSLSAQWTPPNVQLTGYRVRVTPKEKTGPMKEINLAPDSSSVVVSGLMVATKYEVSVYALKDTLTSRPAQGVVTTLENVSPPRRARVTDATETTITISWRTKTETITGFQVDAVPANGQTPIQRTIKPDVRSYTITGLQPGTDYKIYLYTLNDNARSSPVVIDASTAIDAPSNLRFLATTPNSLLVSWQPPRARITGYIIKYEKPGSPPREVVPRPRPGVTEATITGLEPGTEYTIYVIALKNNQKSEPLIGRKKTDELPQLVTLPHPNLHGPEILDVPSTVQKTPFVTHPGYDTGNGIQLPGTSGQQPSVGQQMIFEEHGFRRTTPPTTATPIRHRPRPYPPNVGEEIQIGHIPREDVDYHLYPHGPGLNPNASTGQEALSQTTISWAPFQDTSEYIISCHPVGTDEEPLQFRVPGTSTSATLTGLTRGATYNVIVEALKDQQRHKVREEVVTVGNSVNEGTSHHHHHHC
FNIII12-15 (H), heparinII-binding domain of fibronectin, sequence (P02751 other isoform, or with tags, fused parts or gaps limits assumed): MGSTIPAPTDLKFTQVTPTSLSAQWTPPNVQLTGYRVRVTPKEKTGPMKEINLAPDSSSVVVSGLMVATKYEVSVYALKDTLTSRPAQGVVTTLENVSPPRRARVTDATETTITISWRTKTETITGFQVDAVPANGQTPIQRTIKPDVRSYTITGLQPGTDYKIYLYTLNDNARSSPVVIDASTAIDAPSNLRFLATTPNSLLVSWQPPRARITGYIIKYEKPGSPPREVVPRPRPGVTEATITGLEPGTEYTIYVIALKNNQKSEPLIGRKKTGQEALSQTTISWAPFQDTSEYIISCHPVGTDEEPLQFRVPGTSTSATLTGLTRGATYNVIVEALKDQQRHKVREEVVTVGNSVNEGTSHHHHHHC
vascular endothelial growth factor A (VEGF-A) (human), sequence (P15692 other isoform, or with tags, fused parts or gaps limits assumed): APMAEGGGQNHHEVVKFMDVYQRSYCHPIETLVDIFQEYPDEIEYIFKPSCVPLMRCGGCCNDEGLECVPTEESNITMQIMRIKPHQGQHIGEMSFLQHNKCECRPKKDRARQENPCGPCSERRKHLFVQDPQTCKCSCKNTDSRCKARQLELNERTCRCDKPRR
FNIII12-13, sequence (P02751 other isoform, or with tags, fused parts or gaps limits assumed): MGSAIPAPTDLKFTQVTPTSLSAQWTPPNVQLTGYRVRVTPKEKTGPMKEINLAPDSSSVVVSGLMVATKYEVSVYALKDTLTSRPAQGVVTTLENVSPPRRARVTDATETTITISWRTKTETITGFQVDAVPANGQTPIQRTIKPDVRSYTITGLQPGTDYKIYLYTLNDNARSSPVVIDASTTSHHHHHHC

## FNIII1 (from UniProt P02751 610-702)
[1]
  Kd: 32 nM
[2]
  Kd: 370 nM
[3]
  Kd: 6.2 nM

## FNIII12-V15 (HV), composite heparinII-binding and variably-spliced IIICS domains of fibronectin (from UniProt P02751 1812-2288)
[1]
  Kd: 21 nM
[4]
  Kd: 17 nM
[5]
  Kd: 97 nM
[6]
  Kd: 17 nM
[7]
  Kd: 2.5 nM
[8]
  Kd: 0.6 nM
[9]
  Kd: 25 nM

## FNIII1-2 (from UniProt P02751 610-812)
[1]
  Kd: 37 nM
[2]
  Kd: 9.1 nM

## IIICS, variably-spliced domain of fibronectin (from UniProt P02751 2083-2202)
[1]
  Kd: 350 nM
[10]
  Kd: 100 nM
[11]
  Kd: 100 nM
[12]
  Kd: 100 nM
[3]
  Kd: 74 nM

## FNIII1-7 (from UniProt P02751 610-1266)
[1]
  Kd: 75 nM
[4]
  Kd: 100 nM
[5]
  Kd: 17 nM
[9]
  Kd: 18 nM

## FNIII12-13 (from UniProt P02751 1812-1992)
[1]
  Kd: 75 nM

## FNIII12-15 (H), heparinII-binding domain of fibronectin (from UniProt P02751 1631-1987)
[1]
  Kd: 6.8 nM
[3]
  Kd: 16 nM
[13]
  Kd: 6.8 nM
[14]
  Kd: 16 nM

## intact human plasma fibronectin (FN) (from UniProt P02751 32-2477)
[15]
  Kd: 49 nM
[16]
  Kd: 53 nM
[17]
  Kd: 49 nM
[18]
  Kd: 53 nM

## FNIII12-14 (from UniProt P02751 1812-2082)
[1]
  Kd: 35 nM
[3]
  Kd: 7.6 nM
[13]
  Kd: 55 nM
[14]
  Kd: 7.6 nM

Reference: US8759300
